Reference: patent US20150315260A1 (Sanofi, published 2015)
Like-named read-outs stand apart in the source and are kept apart here. Starred links: 1 amine or outer side, 2 acyl side, 3 side chain; linkers in the order of their positions; H or OH if unused. Non-standard residues stand in square brackets, D forms with d. Groups on a side chain read outwards from the residue. No end group written: not given here. *: point of attachment. γGlu = O=C(O)[C@H](CCC(=O)[*:2])N[*:1]; Stearoyl = CCCCCCCCCCCCCCCCCC(=O)*; Palmitoyl = CCCCCCCCCCCCCCCC(=O)*; AEEA = NCCOCCOCC(=O)O; Aib = CC(C)(N)C(=O)O

T1: human GIP receptor (human, UniProt P48546 22-466)
T1 sequence (looked up): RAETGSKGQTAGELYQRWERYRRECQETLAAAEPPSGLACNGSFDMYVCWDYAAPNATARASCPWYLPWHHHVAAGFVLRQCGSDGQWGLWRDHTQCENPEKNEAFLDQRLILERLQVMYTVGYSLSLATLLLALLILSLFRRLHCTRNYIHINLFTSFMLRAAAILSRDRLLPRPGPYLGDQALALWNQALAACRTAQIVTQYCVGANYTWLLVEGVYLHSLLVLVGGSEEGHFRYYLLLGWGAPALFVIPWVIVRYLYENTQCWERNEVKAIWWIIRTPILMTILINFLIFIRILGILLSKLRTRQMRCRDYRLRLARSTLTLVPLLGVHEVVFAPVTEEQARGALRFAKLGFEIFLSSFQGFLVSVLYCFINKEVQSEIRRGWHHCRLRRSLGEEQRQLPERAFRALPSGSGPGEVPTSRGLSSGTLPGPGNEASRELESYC


What was measured:
Assay in all cases: cell-based or functional assay
[1] = molecular target: T2, human GLP-1 receptor (human, UniProt P43220 24-463)
[2] = molecular target: T3, human glucagon receptor (human, UniProt P47871 26-477)
T3 sequence (P47871 26-477): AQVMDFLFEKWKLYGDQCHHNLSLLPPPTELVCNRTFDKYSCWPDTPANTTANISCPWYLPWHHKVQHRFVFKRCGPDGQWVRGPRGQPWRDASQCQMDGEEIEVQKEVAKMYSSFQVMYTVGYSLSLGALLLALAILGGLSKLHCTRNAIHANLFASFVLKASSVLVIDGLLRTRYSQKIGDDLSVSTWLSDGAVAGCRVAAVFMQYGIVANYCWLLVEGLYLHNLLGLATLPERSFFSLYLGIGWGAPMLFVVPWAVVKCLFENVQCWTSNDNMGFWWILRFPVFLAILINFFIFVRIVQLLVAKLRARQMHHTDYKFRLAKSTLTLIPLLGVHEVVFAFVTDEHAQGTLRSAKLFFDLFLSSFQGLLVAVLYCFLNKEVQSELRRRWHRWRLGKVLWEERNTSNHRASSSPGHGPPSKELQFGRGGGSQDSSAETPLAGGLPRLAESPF

[3] = molecular target: T1, human GIP receptor
[4] = molecular target: T2, human GLP-1 receptor; remark: listed apart in the source
[5] = molecular target: T3, human glucagon receptor; remark: listed apart in the source
[6] = molecular target: T1, human GIP receptor; remark: listed apart in the source

Binder	EC50 hGLP-1R (cAMP formation) [1]	EC50 hGlucagon-R (cAMP formation) [2]	EC50 hGIP-R (cAMP formation) [3]	EC50 hGLP-1R (cAMP formation) [4]	EC50 hGlucagon-R (cAMP formation) [5]	EC50 hGIP-1 (cAMP formation, GIP receptor) [6]
H[Aib]QGTFTSDLSKQK([AEEA-AEEA-γGlu-Palmitoyl])DEQRAKLFIEWL[Aib]AGGPSSGAPPPS-NH2 (N-terminus assumed; SMILES CCCCCCCCCCCCCCCC(=O)N[C@@H](CCC(=O)NCCOCCOCC(=O)NCCOCCOCC(=O)NCCCC[C@H](NC(=O)[C@H](CCC(N)=O)NC(=O)[C@H](CCCCN)NC(=O)[C@H](CO)NC(=O)[C@H](CC(C)C)NC(=O)[C@H](CC(=O)O)NC(=O)[C@H](CO)NC(=O)[C@@H](NC(=O)[C@H](Cc1ccccc1)NC(=O)[C@@H](NC(=O)CNC(=O)[C@H](CCC(N)=O)NC(=O)C(C)(C)NC(=O)[C@@H](N)Cc1c[nH]cn1)[C@@H](C)O)[C@@H](C)O)C(=O)N[C@@H](CC(=O)O)C(=O)N[C@@H](CCC(=O)O)C(=O)N[C@@H](CCC(N)=O)C(=O)N[C@@H](CCCNC(=N)N)C(=O)N[C@@H](C)C(=O)N[C@@H](CCCCN)C(=O)N[C@@H](CC(C)C)C(=O)N[C@@H](Cc1ccccc1)C(=O)N[C@H](C(=O)N[C@@H](CCC(=O)O)C(=O)N[C@@H](Cc1c[nH]c2ccccc12)C(=O)N[C@@H](CC(C)C)C(=O)NC(C)(C)C(=O)N[C@@H](C)C(=O)NCC(=O)NCC(=O)N1CCC[C@H]1C(=O)N[C@@H](CO)C(=O)N[C@@H](CO)C(=O)NCC(=O)N[C@@H](C)C(=O)N1CCC[C@H]1C(=O)N1CCC[C@H]1C(=O)N1CCC[C@H]1C(=O)N[C@@H](CO)C(N)=O)[C@@H](C)CC)C(=O)O) [exendin-4 derivative SEQ ID NO: 16]	0.002 nM	0.042 nM	1.87 nM	–	–	–
H[Aib]QGTFTSDLSKQK([AEEA-AEEA-γGlu-Stearoyl])DEQRAKLFIEWL[Aib]AGGPSSGAPPPS-NH2 (N-terminus assumed; SMILES CCCCCCCCCCCCCCCCCC(=O)N[C@@H](CCC(=O)NCCOCCOCC(=O)NCCOCCOCC(=O)NCCCC[C@H](NC(=O)[C@H](CCC(N)=O)NC(=O)[C@H](CCCCN)NC(=O)[C@H](CO)NC(=O)[C@H](CC(C)C)NC(=O)[C@H](CC(=O)O)NC(=O)[C@H](CO)NC(=O)[C@@H](NC(=O)[C@H](Cc1ccccc1)NC(=O)[C@@H](NC(=O)CNC(=O)[C@H](CCC(N)=O)NC(=O)C(C)(C)NC(=O)[C@@H](N)Cc1c[nH]cn1)[C@@H](C)O)[C@@H](C)O)C(=O)N[C@@H](CC(=O)O)C(=O)N[C@@H](CCC(=O)O)C(=O)N[C@@H](CCC(N)=O)C(=O)N[C@@H](CCCNC(=N)N)C(=O)N[C@@H](C)C(=O)N[C@@H](CCCCN)C(=O)N[C@@H](CC(C)C)C(=O)N[C@@H](Cc1ccccc1)C(=O)N[C@H](C(=O)N[C@@H](CCC(=O)O)C(=O)N[C@@H](Cc1c[nH]c2ccccc12)C(=O)N[C@@H](CC(C)C)C(=O)NC(C)(C)C(=O)N[C@@H](C)C(=O)NCC(=O)NCC(=O)N1CCC[C@H]1C(=O)N[C@@H](CO)C(=O)N[C@@H](CO)C(=O)NCC(=O)N[C@@H](C)C(=O)N1CCC[C@H]1C(=O)N1CCC[C@H]1C(=O)N1CCC[C@H]1C(=O)N[C@@H](CO)C(N)=O)[C@@H](C)CC)C(=O)O) [exendin-4 derivative SEQ ID NO: 17]	0.0028 nM	0.0162 nM	0.906 nM	–	–	–
H[Aib]QGTFTSDLSKQK([γGlu-Stearoyl])DEQRAKLFIEWL[Aib]A[dA]GPSSGAPPPS-NH2 (N-terminus assumed; SMILES CCCCCCCCCCCCCCCCCC(=O)N[C@@H](CCC(=O)NCCCC[C@H](NC(=O)[C@H](CCC(N)=O)NC(=O)[C@H](CCCCN)NC(=O)[C@H](CO)NC(=O)[C@H](CC(C)C)NC(=O)[C@H](CC(=O)O)NC(=O)[C@H](CO)NC(=O)[C@@H](NC(=O)[C@H](Cc1ccccc1)NC(=O)[C@@H](NC(=O)CNC(=O)[C@H](CCC(N)=O)NC(=O)C(C)(C)NC(=O)[C@@H](N)Cc1c[nH]cn1)[C@@H](C)O)[C@@H](C)O)C(=O)N[C@@H](CC(=O)O)C(=O)N[C@@H](CCC(=O)O)C(=O)N[C@@H](CCC(N)=O)C(=O)N[C@@H](CCCNC(=N)N)C(=O)N[C@@H](C)C(=O)N[C@@H](CCCCN)C(=O)N[C@@H](CC(C)C)C(=O)N[C@@H](Cc1ccccc1)C(=O)N[C@H](C(=O)N[C@@H](CCC(=O)O)C(=O)N[C@@H](Cc1c[nH]c2ccccc12)C(=O)N[C@@H](CC(C)C)C(=O)NC(C)(C)C(=O)N[C@@H](C)C(=O)N[C@H](C)C(=O)NCC(=O)N1CCC[C@H]1C(=O)N[C@@H](CO)C(=O)N[C@@H](CO)C(=O)NCC(=O)N[C@@H](C)C(=O)N1CCC[C@H]1C(=O)N1CCC[C@H]1C(=O)N1CCC[C@H]1C(=O)N[C@@H](CO)C(N)=O)[C@@H](C)CC)C(=O)O) [exendin-4 derivative SEQ ID NO: 6]	0.0141 nM	0.136 nM	2.76 nM	–	–	–
H[Aib]QGTFTSDLSKQK([AEEA-AEEA-AEEA-Stearoyl])DEQRAKLFIEWL[Aib]AGGPSSGAPPPS-NH2 (N-terminus assumed; SMILES CCCCCCCCCCCCCCCCCC(=O)NCCOCCOCC(=O)NCCOCCOCC(=O)NCCOCCOCC(=O)NCCCC[C@H](NC(=O)[C@H](CCC(N)=O)NC(=O)[C@H](CCCCN)NC(=O)[C@H](CO)NC(=O)[C@H](CC(C)C)NC(=O)[C@H](CC(=O)O)NC(=O)[C@H](CO)NC(=O)[C@@H](NC(=O)[C@H](Cc1ccccc1)NC(=O)[C@@H](NC(=O)CNC(=O)[C@H](CCC(N)=O)NC(=O)C(C)(C)NC(=O)[C@@H](N)Cc1c[nH]cn1)[C@@H](C)O)[C@@H](C)O)C(=O)N[C@@H](CC(=O)O)C(=O)N[C@@H](CCC(=O)O)C(=O)N[C@@H](CCC(N)=O)C(=O)N[C@@H](CCCNC(=N)N)C(=O)N[C@@H](C)C(=O)N[C@@H](CCCCN)C(=O)N[C@@H](CC(C)C)C(=O)N[C@@H](Cc1ccccc1)C(=O)N[C@H](C(=O)N[C@@H](CCC(=O)O)C(=O)N[C@@H](Cc1c[nH]c2ccccc12)C(=O)N[C@@H](CC(C)C)C(=O)NC(C)(C)C(=O)N[C@@H](C)C(=O)NCC(=O)NCC(=O)N1CCC[C@H]1C(=O)N[C@@H](CO)C(=O)N[C@@H](CO)C(=O)NCC(=O)N[C@@H](C)C(=O)N1CCC[C@H]1C(=O)N1CCC[C@H]1C(=O)N1CCC[C@H]1C(=O)N[C@@H](CO)C(N)=O)[C@@H](C)CC) [exendin-4 derivative SEQ ID NO: 18]	0.0083 nM	0.0086 nM	2.16 nM	–	–	–
H[Aib]QGTFTSDLSKQLDEQRAKLFIEWL[Aib]AGGPSSGAPPPS-NH2 (N-terminus assumed; SMILES CC[C@H](C)[C@H](NC(=O)[C@H](Cc1ccccc1)NC(=O)[C@H](CC(C)C)NC(=O)[C@H](CCCCN)NC(=O)[C@H](C)NC(=O)[C@H](CCCNC(=N)N)NC(=O)[C@H](CCC(N)=O)NC(=O)[C@H](CCC(=O)O)NC(=O)[C@H](CC(=O)O)NC(=O)[C@H](CC(C)C)NC(=O)[C@H](CCC(N)=O)NC(=O)[C@H](CCCCN)NC(=O)[C@H](CO)NC(=O)[C@H](CC(C)C)NC(=O)[C@H](CC(=O)O)NC(=O)[C@H](CO)NC(=O)[C@@H](NC(=O)[C@H](Cc1ccccc1)NC(=O)[C@@H](NC(=O)CNC(=O)[C@H](CCC(N)=O)NC(=O)C(C)(C)NC(=O)[C@@H](N)Cc1c[nH]cn1)[C@@H](C)O)[C@@H](C)O)C(=O)N[C@@H](CCC(=O)O)C(=O)N[C@@H](Cc1c[nH]c2ccccc12)C(=O)N[C@@H](CC(C)C)C(=O)NC(C)(C)C(=O)N[C@@H](C)C(=O)NCC(=O)NCC(=O)N1CCC[C@H]1C(=O)N[C@@H](CO)C(=O)N[C@@H](CO)C(=O)NCC(=O)N[C@@H](C)C(=O)N1CCC[C@H]1C(=O)N1CCC[C@H]1C(=O)N1CCC[C@H]1C(=O)N[C@@H](CO)C(N)=O) [exendin-4 derivative SEQ ID NO: 24 (comparison compound, Leu in position 14)]	–	–	–	0.008 nM	3.09 nM	114 nM
H[Aib]QGTFTSDLSKQK([γGlu-γGlu-Palmitoyl])DEQRAKLFIEWL[Aib]A[dA]GPSSGAPPPS-NH2 (N-terminus assumed; SMILES CCCCCCCCCCCCCCCC(=O)N[C@@H](CCC(=O)N[C@@H](CCC(=O)NCCCC[C@H](NC(=O)[C@H](CCC(N)=O)NC(=O)[C@H](CCCCN)NC(=O)[C@H](CO)NC(=O)[C@H](CC(C)C)NC(=O)[C@H](CC(=O)O)NC(=O)[C@H](CO)NC(=O)[C@@H](NC(=O)[C@H](Cc1ccccc1)NC(=O)[C@@H](NC(=O)CNC(=O)[C@H](CCC(N)=O)NC(=O)C(C)(C)NC(=O)[C@@H](N)Cc1c[nH]cn1)[C@@H](C)O)[C@@H](C)O)C(=O)N[C@@H](CC(=O)O)C(=O)N[C@@H](CCC(=O)O)C(=O)N[C@@H](CCC(N)=O)C(=O)N[C@@H](CCCNC(=N)N)C(=O)N[C@@H](C)C(=O)N[C@@H](CCCCN)C(=O)N[C@@H](CC(C)C)C(=O)N[C@@H](Cc1ccccc1)C(=O)N[C@H](C(=O)N[C@@H](CCC(=O)O)C(=O)N[C@@H](Cc1c[nH]c2ccccc12)C(=O)N[C@@H](CC(C)C)C(=O)NC(C)(C)C(=O)N[C@@H](C)C(=O)N[C@H](C)C(=O)NCC(=O)N1CCC[C@H]1C(=O)N[C@@H](CO)C(=O)N[C@@H](CO)C(=O)NCC(=O)N[C@@H](C)C(=O)N1CCC[C@H]1C(=O)N1CCC[C@H]1C(=O)N1CCC[C@H]1C(=O)N[C@@H](CO)C(N)=O)[C@@H](C)CC)C(=O)O)C(=O)O) [exendin-4 derivative SEQ ID NO: 7]	0.0034 nM	0.101 nM	7.62 nM	–	–	–
